B1: CPEB3 Ribozyme (parent)
chain: GGGGGCCACAGCAGAAGCGUUCACGUCGCGGCCCCUGUCAGAUUCUGGUGAAUCUGCGAAUUCUGCUGU

Variants of: B1
Assay: self-cleavage, relative activity (ratio to wild type); higher = more cleavage; co-transcriptional

| Variant | self-cleavage |
| --- | --- |
| GGGGGCCACAGCAGAAGCGUUCACGUCGCGGCCCCUGUCAGAUUCUGGUAAAUAUGCGAAUUCUGCUGU [G50A C54A] | 0.81 |
| GGGGGCCACAGCAGAAGCGUUCACGUCGCGGCCCCUGUCAGAUUCUGGUAAAUCUGCGAAUUCAGCUGU [G50A U64A] | 0.937 |
| GGGGGCCACAGCAGAAGCGUUCACGUCGCGGCCCCUGUCAGAUUCUGGUCAAUCUGCGAAUUCUGUUGU [G50C C66U] | 0.981 |
| GGGGGCCACAGCAGAAGCGUUCACGUCGCGGCCCCUGUCAGAUUCUGGUCAAUCUGCGAAUUCUGAUGU [G50C C66A] | 0.728 |
| GGGGGCCACAGCAGAAGCGUUCACGUCGCGGCCCCUGUCAGAUUCUGGUCAAUCUGCGAAUUCUGGUGU [G50C C66G] | 0.853 |
| GGGGGCCACAGCAGAAGCGUUCACGUCGCGGCCCCUGUCAGAUUCUGGUCAAUCUACGAAUUCUGCUGU [G50C G56A] | 0.831 |
| GGGGGCCACAGCAGAAGCGUUCACGUCGCGGCCCCUGUCAGAUUCUGGUCAAUCUUCGAAUUCUGCUGU [G50C G56U] | 0.842 |
| GGGGGCCACAGCAGAAGCGUUCACGUCGCGGCCCCUGUCAGAUUCUGGUCAAUGUGCGAAUUCUGCUGU [G50C C54G] | 0.654 |
| GGGGGCCACAGCAGAAGCGUUCACGUCGCGGCCCCUGUCAGAUUCUGGUCAAUUUGCGAAUUCUGCUGU [G50C C54U] | 0.921 |
| GGGGGCCACAGCAGAAGCGUUCACGUCGCGGCCCCUGUCAGAUUCUGGUCAAUCUGCGAUUUCUGCUGU [G50C A60U] | 0.456 |
| GGGGGCCACAGCAGAAGCGUUCACGUCGCGGCCCCUGUCAGAUUCUGGUCAAUCUGCGACUUCUGCUGU [G50C A60C] | 0.34 |
| GGGGGCCACAGCAGAAGCGUUCACGUCGCGGCCCCUGUCAGAUUCUGGUCAAUCUGCGAAUGCUGCUGU [G50C U62G] | 0.755 |
| GGGGGCCACAGCAGAAGCGUUCACGUCGCGGCCCCUGUCAGAUUCUGGUCAAUCUGCGAAUCCUGCUGU [G50C U62C] | 0.763 |
| GGGGGCCACAGCAGAAGCGUUCACGUCGCGGCCCCUGUCAGAUUCUGGUCAAUCUGCGAAUACUGCUGU [G50C U62A] | 0.968 |
| GGGGGCCACAGCAGAAGCGUUCACGUCGCGGCCCCUGUCAGAUUCUGGUUAAUCUGCGAUUUCUGCUGU [G50U A60U] | 0.515 |
| GGGGGCCACAGCAGAAGCGUUCACGUCGCGGCCCCUGUCAGAUUCUGGUCAAUCUGCGAAUUCUGCUUU [G50C G68U] | 0.973 |
| GGGGGCCACAGCAGAAGCGUUCACGUCGCGGCCCCUGUCAGAUUCUGGUCAAUCUGCGAAUUCUGCUCU [G50C G68C] | 0.964 |
| GGGGGCCACAGCAGAAGCGUUCACGUCGCGGCCCCUGUCAGAUUCUGGUAAAUCUGCGAACUCUGCUGU [G50A U61C] | 0.799 |
| GGGGGCCACAGCAGAAGCGUUCACGUCGCGGCCCCUGUCAGAUUCUGGUAAAUCUGCGAAAUCUGCUGU [G50A U61A] | 0.862 |
| GGGGGCCACAGCAGAAGCGUUCACGUCGCGGCCCCUGUCAGAUUCUGGUAAAUCUGGGAAUUCUGCUGU [G50A C57G] | 0.301 |

| Variant | self-cleavage |
| --- | --- |
| GGGGGCCACAGCAGAAGCGUUCACGUCGCGGCCCCUGUCAGAUUCUGGUCAAUCUGCGAAUUCUGCCGU [G50C U67C] | 0.994 |
| GGGGGCCACAGCAGAAGCGUUCACGUCGCGGCCCCUGUCAGAUUCUGGUCAAUCUGCGAAUUCUGCGGU [G50C U67G] | 1.02 |
| GGGGGCCACAGCAGAAGCGUUCACGUCGCGGCCCCUGUCAGAUUCUGGUAAAUCUGCAAAUUCUGCUGU [G50A G58A] | 1.01 |
| GGGGGCCACAGCAGAAGCGUUCACGUCGCGGCCCCUGUCAGAUUCUGGUAAAUCUGCUAAUUCUGCUGU [G50A G58U] | 1.02 |
| GGGGGCCACAGCAGAAGCGUUCACGUCGCGGCCCCUGUCAGAUUCUGGUUAAUUUGCGAAUUCUGCUGU [G50U C54U] | 0.968 |
| GGGGGCCACAGCAGAAGCGUUCACGUCGCGGCCCCUGUCAGAUUCUGGUUAAUAUGCGAAUUCUGCUGU [G50U C54A] | 0.858 |
| GGGGGCCACAGCAGAAGCGUUCACGUCGCGGCCCCUGUCAGAUUCUGGUAAAUCUGCGAAUUCUGCAGU [G50A U67A] | 0.989 |
| GGGGGCCACAGCAGAAGCGUUCACGUCGCGGCCCCUGUCAGAUUCUGGUAAAUCUGCGAAUUCUGUUGU [G50A C66U] | 1.01 |
| GGGGGCCACAGCAGAAGCGUUCACGUCGCGGCCCCUGUCAGAUUCUGGUCAAUCCGCGAAUUCUGCUGU [G50C U55C] | 0.486 |
| GGGGGCCACAGCAGAAGCGUUCACGUCGCGGCCCCUGUCAGAUUCUGGUCAAUCGGCGAAUUCUGCUGU [G50C U55G] | 0.685 |
| GGGGGCCACAGCAGAAGCGUUCACGUCGCGGCCCCUGUCAGAUUCUGGUCAAUCAGCGAAUUCUGCUGU [G50C U55A] | 0.794 |
| GGGGGCCACAGCAGAAGCGUUCACGUCGCGGCCCCUGUCAGAUUCUGGUCAAUCUGCGAAUUCUCCUGU [G50C G65C] | 0.585 |
| GGGGGCCACAGCAGAAGCGUUCACGUCGCGGCCCCUGUCAGAUUCUGGUCAAUCUGCGAAUUCUACUGU [G50C G65A] | 0.885 |
| GGGGGCCACAGCAGAAGCGUUCACGUCGCGGCCCCUGUCAGAUUCUGGUCAAUCUGCGAAUUUUGCUGU [G50C C63U] | 0.97 |
| GGGGGCCACAGCAGAAGCGUUCACGUCGCGGCCCCUGUCAGAUUCUGGUCAAUCUGCGAAUUGUGCUGU [G50C C63G] | 0.738 |
| GGGGGCCACAGCAGAAGCGUUCACGUCGCGGCCCCUGUCAGAUUCUGGUCAAUCUGCGAAUUAUGCUGU [G50C C63A] | 0.813 |
| GGGGGCCACAGCAGAAGCGUUCACGUCGCGGCCCCUGUCAGAUUCUGGUAAAUCUGCGAAUACUGCUGU [G50A U62A] | 0.986 |
| GGGGGCCACAGCAGAAGCGUUCACGUCGCGGCCCCUGUCAGAUUCUGGUAAAUCUGCGAAUCCUGCUGU [G50A U62C] | 0.949 |
| GGGGGCCACAGCAGAAGCGUUCACGUCGCGGCCCCUGUCAGAUUCUGGUAAAUCUGCGAAUGCUGCUGU [G50A U62G] | 0.959 |
